± gives the uncertainty stated by the source.
B1: Transcriptional repressor p66-beta, residues 415 to 455; numbered along this chain, Q8WXI9 (parent)
chain: VEPFVCAQCRTDFTPHWKQEKNGKILCEQCMTSNQKKALKA

Variants of: B1
Assay: abundance fitness (aPCA) (normalised: wild type 0, dead -1); higher = more abundant; growth selection in yeast, the domain comes from the species named
Conditions: Homo sapiens

C27S and C27D are within error of each other in abundance fitness: -0.739 ± 0.13 for the first, -0.504 ± 0.3 for the second.

C27Y and C27W are within error of each other in abundance fitness: -0.444 ± 0.43 for the first, -1.02 ± 0.18 for the second.

Compared with C27L, C27E is higher in abundance fitness: -1.32 ± 0.27 for the first, -0.319 ± 0.27 for the second.

First: C27M
Second: C27H
The abundance fitness of the first is lower: -1.31 ± 0.42 for the first, 0.039 ± 0.18 for the second.

C27Q and C27V are within error of each other in abundance fitness: -0.79 ± 0.29 for the first, -1.11 ± 0.23 for the second.

C27A and C27R are within error of each other in abundance fitness: -1.01 ± 0.18 for the first, -1.06 ± 0.17 for the second.

C27T and C27G are within error of each other in abundance fitness: -1.38 ± 0.32 for the first, -1.05 ± 0.21 for the second.

K36I and K36R are within error of each other in abundance fitness: -0.198 ± 0.4 for the first, -0.168 ± 0.068 for the second.

K36C and K36F are within error of each other in abundance fitness: -0.275 ± 0.12 for the first, -0.324 ± 0.17 for the second.

K36N and K36A are within error of each other in abundance fitness: 0.14 ± 0.26 for the first, -0.062 ± 0.073 for the second.

K36L and K36V are within error of each other in abundance fitness: -0.329 ± 0.11 for the first, -0.277 ± 0.07 for the second.

K36D and K36W are within error of each other in abundance fitness: -0.239 ± 0.14 for the first, -0.256 ± 0.085 for the second.

K36S and K36E are within error of each other in abundance fitness: -0.113 ± 0.089 for the first, -0.09 ± 0.082 for the second.

K36M and K36G are within error of each other in abundance fitness: -0.078 ± 0.09 for the first, -0.006 ± 0.053 for the second.

K36Q and K36T are within error of each other in abundance fitness: 0.105 ± 0.14 for the first, -0.024 ± 0.075 for the second.

K36P and A38P are within error of each other in abundance fitness: -0.242 ± 0.14 for the first, -0.509 ± 0.47 for the second.

A38H and A38L are within error of each other in abundance fitness: -0.32 ± 0.36 for the first, -0.053 ± 0.094 for the second.

Compared with A38T, A38R is lower in abundance fitness: 0.687 ± 0.36 for the first, -0.19 ± 0.064 for the second.

Compared with A38W, A38D is higher in abundance fitness: -0.398 ± 0.12 for the first, 0.046 ± 0.13 for the second.

A38M and A38G are within error of each other in abundance fitness: -0.181 ± 0.13 for the first, -0.213 ± 0.057 for the second.

A38Q and A38V are within error of each other in abundance fitness: -0.541 ± 0.44 for the first, -0.04 ± 0.073 for the second.

A38S and A38K are within error of each other in abundance fitness: 0.066 ± 0.12 for the first, 0.059 ± 0.096 for the second.

Going from A38Y to A38E, the abundance fitness rises from -0.228 ± 0.21 to 0.167 ± 0.083.

Q35V and Q35I are within error of each other in abundance fitness: -0.339 ± 0.086 for the first, -0.378 ± 0.16 for the second.

Q35D and Q35R are within error of each other in abundance fitness: -0.103 ± 0.1 for the first, -0.197 ± 0.067 for the second.

Q35A and Q35P are within error of each other in abundance fitness: -0.117 ± 0.063 for the first, -0.223 ± 0.12 for the second.

Q35T and Q35Y are within error of each other in abundance fitness: 0.018 ± 0.24 for the first, 0.116 ± 0.43 for the second.

Q35G and Q35M are within error of each other in abundance fitness: -0.152 ± 0.058 for the first, -0.157 ± 0.18 for the second.

Going from Q35C to Q35E, the abundance fitness rises from -0.218 ± 0.14 to 0.025 ± 0.08.

Q35L and Q35K are within error of each other in abundance fitness: -0.365 ± 0.1 for the first, -0.136 ± 0.26 for the second.

Q35S and S33L are within error of each other in abundance fitness: -0.087 ± 0.19 for the first, -0.176 ± 0.089 for the second.

S33H and S33W are within error of each other in abundance fitness: 0.121 ± 0.49 for the first, -0.379 ± 0.14 for the second.

S33V and S33K are within error of each other in abundance fitness: -0.104 ± 0.092 for the first, -0.222 ± 0.2 for the second.

Going from S33Y to S33F, the abundance fitness falls from 0.28 ± 0.2 to -0.919 ± 0.46.

S33D and S33Q are within error of each other in abundance fitness: 0.002 ± 0.24 for the first, -0.017 ± 0.077 for the second.

S33R and S33C are within error of each other in abundance fitness: -0.122 ± 0.072 for the first, -0.113 ± 0.2 for the second.

S33T and S33P are within error of each other in abundance fitness: -0.01 ± 0.087 for the first, -0.011 ± 0.17 for the second.

S33E and S33A are within error of each other in abundance fitness: -0.007 ± 0.086 for the first, -0.04 ± 0.072 for the second.

S33M and A41K are within error of each other in abundance fitness: 0.048 ± 0.088 for the first, -0.091 ± 0.43 for the second.

Compared with A41R, A41L is higher in abundance fitness: -0.071 ± 0.079 for the first, 0.211 ± 0.14 for the second.

A41E and A41C are within error of each other in abundance fitness: -0.02 ± 0.27 for the first, -0.215 ± 0.2 for the second.

A41G and A41V are within error of each other in abundance fitness: 0.01 ± 0.075 for the first, 0.153 ± 0.18 for the second.

A41S and A41M are within error of each other in abundance fitness: 0.004 ± 0.23 for the first, -0.247 ± 0.2 for the second.

A41W and E28H are within error of each other in abundance fitness: 0.002 ± 0.49 for the first, -0.066 ± 0.29 for the second.

Compared with E28T, E28F is lower in abundance fitness: 0.029 ± 0.17 for the first, -0.356 ± 0.21 for the second.

E28R and E28Y are within error of each other in abundance fitness: -0.343 ± 0.078 for the first, -0.16 ± 0.13 for the second.

E28L and E28C are within error of each other in abundance fitness: -0.181 ± 0.086 for the first, 0.074 ± 0.23 for the second.

E28K and E28P are within error of each other in abundance fitness: -0.062 ± 0.17 for the first, -0.178 ± 0.098 for the second.

First: E28S
Second: E28Q
The abundance fitness of the first is higher: -0.006 ± 0.087 for the first, -0.222 ± 0.12 for the second.

First: E28I
Second: E28A
The abundance fitness of the first is lower: -0.418 ± 0.13 for the first, -0.122 ± 0.091 for the second.

Going from E28W to E28N, the abundance fitness rises from -0.307 ± 0.096 to 0.03 ± 0.13.

E28G and E28D are within error of each other in abundance fitness: -0.066 ± 0.072 for the first, 0.08 ± 0.17 for the second.

E28M and K24L are within error of each other in abundance fitness: -0.159 ± 0.11 for the first, -0.106 ± 0.07 for the second.

K24S and K24T are within error of each other in abundance fitness: -0.228 ± 0.095 for the first, -0.174 ± 0.14 for the second.

First: K24R
Second: K24C
The abundance fitness of the first is higher: 0.028 ± 0.059 for the first, -0.213 ± 0.15 for the second.

K24G and K24D are within error of each other in abundance fitness: -0.02 ± 0.058 for the first, -0.166 ± 0.47 for the second.

First: K24M
Second: K24E
The abundance fitness of the first is lower: -0.082 ± 0.11 for the first, 0.17 ± 0.094 for the second.

K24H and K24A are within error of each other in abundance fitness: 0.013 ± 0.42 for the first, -0.079 ± 0.073 for the second.

Compared with K24Q, K24V is lower in abundance fitness: 0.097 ± 0.094 for the first, -0.148 ± 0.076 for the second.

First: L39D
Second: L39V
The abundance fitness of the first is lower: -0.558 ± 0.3 for the first, 0.078 ± 0.061 for the second.

L39K and L39N are within error of each other in abundance fitness: -0.015 ± 0.13 for the first, 0.54 ± 0.45 for the second.

First: L39E
Second: L39G
The abundance fitness of the first is lower: -0.108 ± 0.1 for the first, 0.157 ± 0.052 for the second.

Compared with L39S, L39Y is higher in abundance fitness: 0.094 ± 0.097 for the first, 0.577 ± 0.33 for the second.

L39C and L39H are within error of each other in abundance fitness: -0.1 ± 0.16 for the first, -0.078 ± 0.14 for the second.

First: L39I
Second: L39T
The abundance fitness of the first is higher: 0.122 ± 0.18 for the first, -0.199 ± 0.13 for the second.

L39F and L39Q are within error of each other in abundance fitness: -0.425 ± 0.26 for the first, -0.291 ± 0.17 for the second.

L39A and L39R are within error of each other in abundance fitness: -0.083 ± 0.079 for the first, -0.016 ± 0.061 for the second.

Going from C30L to C30W, the abundance fitness falls from -0.786 ± 0.11 to -1.07 ± 0.13.

Going from C30E to C30A, the abundance fitness rises from -1.11 ± 0.2 to -0.488 ± 0.13.

C30H and C30R are within error of each other in abundance fitness: -0.672 ± 0.28 for the first, -0.84 ± 0.12 for the second.

C30K and C30D are within error of each other in abundance fitness: -0.635 ± 0.18 for the first, -0.315 ± 0.19 for the second.

C30V and C30Q are within error of each other in abundance fitness: -0.664 ± 0.13 for the first, -0.795 ± 0.29 for the second.

K37D and K37H are within error of each other in abundance fitness: -0.191 ± 0.21 for the first, -0.176 ± 0.23 for the second.

K37G and K37V are within error of each other in abundance fitness: -0.015 ± 0.056 for the first, -0.035 ± 0.076 for the second.

K37R and K37Y are within error of each other in abundance fitness: -0.074 ± 0.064 for the first, -0.116 ± 0.2 for the second.
